For two substances, Km results are on record in paper PMC3282769, “New Insight into the Transcarbamylase Family: The Structure of Putrescine Transcarbamylase, a Key Catalyst for Fermentative Utilization of Agmatine” (PLoS ONE, 2012).

Data set [1] relates to NCCCCN. Nature of the data set: carbamylputrescine production, colorimetric (Archibald reaction); hyperbolic fit. In kind it is biochemical, Enterococcus faecalis. Particulars: 10 mM carbamylphosphate, 50 mM Tris-HCl pH 7, 37°C.
In data set [2] the test system is NCCCCN. Nature of the data set: purified protein. Particulars: 10 mM carbamylphosphate, 50 mM Tris-HCl pH 7, 37°C, 230YGLY233 replaced by VSMG.

Regarding “PTC (putrescine transcarbamylase) (Enterococcus faecalis V583)”, the Km with NCCCCN [1] is 1.41 ± 0.22 mM.

Turning to “PTC (putrescine transcarbamylase) (Enterococcus faecalis V583; G231S/L232M/Y230V/Y233G)”, the Km in the data set with NCCCCN [2] stood at 32.9 ± 8.8 mM.

As usually defined, the Km is the concentration of substrate that gives half-maximal velocity.
